Results published in patent publication US7063965 (Regeneron, dated 2006).

Legend:
[1] = biological target: TIE-2 receptor on ABAE (Adult Bovine Arterial Endothelial) cells (bovine, UniProt Q06807 23-1125); experiment: cell-based or functional assay
[2] = biological target: T1, rat TIE-2 receptorbody (entire extracellular portion of the rat TIE-2 receptor fused to human IgG1 Fc) (rat; human, UniProt A0ABK0L6J5 19-740); experiment: SPR (BIAcore), >50x concentrated conditioned medium over immobilised TIE-2 RB
T1 construct: extracellular domain; also called TIE-2 RB; r TIE-2 ecto/h IgG1 Fc; not shown: human immunoglobulin gamma-1 constant region (IgG1 Fc), from the hinge region to the carboxy-terminus
Experimental: Purified TIE-2 RB was covalently coupled through primary amines to the carboxymethyl dextran layer of a CM5 research grade sensor chip (Pharmacia Biosensor; Piscataway, N.J.). The sensor chip surface was activated using a mixture of N-hydroxysuccinimide (NHS) and N-ethyl-N'-(3-dimethylaminopropyl)carbodiimide (EDC), followed by immobilization of TIE-2 RB (25 µg/mL, pH 4.5) and deactivation of unreacted sites with 1.0 M ethanolamine (pH 8.5). A negative control surface of the EHK-1 receptorbody was prepared in a similar manner.
The running buffer used in the system was HBS (10 mM Hepes, 3.4 mM EDTA, 150 mM NaCl, 0.005% P20 surfactant, pH 7.4). […] Aliquots of 40 µL were injected across the immobilized surface (either TIE-2 or EHK-1) at a flow rate of 5 µL/min and the receptor binding was monitored for 8 min. The binding activity (resonance units, RU) was measured as the difference between a baseline value determined 30 s prior to the sample injection and a measurement taken at 30 s post-injection. […]
The instrument noise level is 20 RU; therefore, any binding activity with a signal above 20 RU may be interpreted as a real interaction with the receptor. […] For the same samples assayed on a EHK-1 RB immobilized surface, the measured activities were less than 35 RU. […]

[3] = biological target: T2, EHK-1 receptorbody (rEHK-1 ecto/hIgG1 Fc) (rat; human, UniProt P54757 27-575); experiment: SPR (BIAcore), conditioned medium preincubated with soluble receptorbody before injection over immobilised TIE-2 RB
T2 construct: extracellular domain; also called EHK-1 RB; soluble EHK-1 RB
T2 sequence (P54757 27-575): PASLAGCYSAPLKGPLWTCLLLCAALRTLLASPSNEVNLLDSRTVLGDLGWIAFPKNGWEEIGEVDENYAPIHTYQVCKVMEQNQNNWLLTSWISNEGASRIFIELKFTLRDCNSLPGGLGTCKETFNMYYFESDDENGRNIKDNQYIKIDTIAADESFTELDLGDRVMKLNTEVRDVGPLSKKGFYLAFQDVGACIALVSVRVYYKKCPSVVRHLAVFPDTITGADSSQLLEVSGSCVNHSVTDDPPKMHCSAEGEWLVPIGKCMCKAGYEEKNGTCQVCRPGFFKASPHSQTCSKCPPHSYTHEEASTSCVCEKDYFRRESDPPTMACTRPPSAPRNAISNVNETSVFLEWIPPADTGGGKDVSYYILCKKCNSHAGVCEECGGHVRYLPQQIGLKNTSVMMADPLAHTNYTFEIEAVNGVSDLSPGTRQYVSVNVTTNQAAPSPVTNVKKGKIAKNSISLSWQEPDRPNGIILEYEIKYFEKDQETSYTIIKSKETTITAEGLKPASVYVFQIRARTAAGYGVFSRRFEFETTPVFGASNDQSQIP

Sequence of TIE-2 receptor on ABAE (Adult Bovine Arterial Endothelial) cells (Q06807 23-1125): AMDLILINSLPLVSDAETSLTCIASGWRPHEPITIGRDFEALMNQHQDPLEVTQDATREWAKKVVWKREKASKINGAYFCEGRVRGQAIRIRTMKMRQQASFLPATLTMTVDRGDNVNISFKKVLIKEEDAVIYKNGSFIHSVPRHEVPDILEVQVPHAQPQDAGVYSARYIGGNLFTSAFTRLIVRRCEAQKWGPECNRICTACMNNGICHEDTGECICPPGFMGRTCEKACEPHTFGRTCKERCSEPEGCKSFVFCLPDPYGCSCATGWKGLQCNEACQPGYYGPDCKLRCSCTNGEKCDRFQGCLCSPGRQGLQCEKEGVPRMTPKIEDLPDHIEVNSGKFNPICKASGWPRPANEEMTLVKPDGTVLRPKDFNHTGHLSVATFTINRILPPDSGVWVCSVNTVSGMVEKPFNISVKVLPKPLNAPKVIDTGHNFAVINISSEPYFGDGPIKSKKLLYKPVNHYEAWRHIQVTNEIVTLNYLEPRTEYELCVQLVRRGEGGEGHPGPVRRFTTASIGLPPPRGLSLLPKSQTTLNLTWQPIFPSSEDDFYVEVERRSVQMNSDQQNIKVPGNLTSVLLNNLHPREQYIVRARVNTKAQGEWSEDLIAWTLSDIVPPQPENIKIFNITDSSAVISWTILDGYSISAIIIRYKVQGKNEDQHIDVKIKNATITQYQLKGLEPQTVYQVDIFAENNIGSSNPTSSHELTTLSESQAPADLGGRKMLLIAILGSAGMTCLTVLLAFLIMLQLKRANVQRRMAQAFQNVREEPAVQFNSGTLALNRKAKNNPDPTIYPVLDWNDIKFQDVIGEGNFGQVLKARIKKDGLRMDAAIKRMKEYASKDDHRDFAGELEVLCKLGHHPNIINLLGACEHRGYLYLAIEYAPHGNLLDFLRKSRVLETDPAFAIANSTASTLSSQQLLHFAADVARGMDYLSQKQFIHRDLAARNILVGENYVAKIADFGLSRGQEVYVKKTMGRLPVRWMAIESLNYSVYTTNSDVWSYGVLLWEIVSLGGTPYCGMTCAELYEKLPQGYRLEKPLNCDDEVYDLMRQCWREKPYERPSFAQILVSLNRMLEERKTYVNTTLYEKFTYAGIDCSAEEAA

TIE-2 tyrosine phosphorylation in ABAE cells (immunoprecipitation and Western blot) [1]: 100 fold | fold enhancement over background of the TIE-2 specific binding signal [2]: 4 fold | binding result [3]: no binding (tested: excess)
B1: TIE-2 ligand in C2C12-ras conditioned medium (ligand, mouse, UniProt O08538 20-498, looked up)
chain: SNQRRNPENGGRRYNRIQHGQCAYTFILPEHDGNCRESATEQYNTNALQRDAPHVEPDFSSQKLQHLEHVMENYTQWLQKLENYIVENMKSEMAQIQQNAVQNHTATMLEIGTSLLSQTAEQTRKLTDVETQVLNQTSRLEIQLLENSLSTYKLEKQLLQQTNEILKIHEKNSLLEHKILEMEGKHKEELDTLKEEKENLQGLVSRQTFIIQELEKQLSRATNNNSILQKQQLELMDTVHNLISLCTKEGVLLKGGKREEEKPFRDCADVYQAGFNKSGIYTIYFNNMPEPKKVFCNMDVNGGGWTVIQHREDGSLDFQRGWKEYKMGFGNPSGEYWLGNEFIFAITSQRQYMLRIELMDWEGNRAYSQYDRFHIGNEKQNYRLYLKGHTGTAGKQSSLILHGADFSTKDADNDNCMCKCALMLTGGWWFDACGPSNLNGMFYTAGQNHGKLNGIKWHYFKGPSYSLRSTTMMIRPLDF
notes: Unpurified activity in concentrated conditioned medium; also called C2C12-ras 10xCCM
